In the supplement of paper PMC12764529:
± gives the half width of the 95% confidence interval.

Key:
[1] = folding stability dG unfold from trypsin proteolysis; higher = more stable
Summary of the method: (§1)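 How resistant each design was to proteolysis was captured as K50, inferred by Bayesian fitting of sequencing counts. Unfolding free energy was then derived relative to a sequence-predicted unfolded-state K50 and a shared folded-state K50, per protease or combined. Digestion used trypsin and chymotrypsin at 11 threefold-diluted concentrations plus a no-protease condition, on mini-proteins under 80 residues without cysteine in a PA-tagged cDNA display construct. Designs were kept only when AlphaFold2 dimer inter-PAE was above 15.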

[2] = folding stability dG unfold (combined trypsin and chymotrypsin); higher = more stable
Summary of the method: as §1

[3] = folding stability dG unfold from chymotrypsin proteolysis; higher = more stable
Summary of the method: as §1

Sequence | folding stability dG unfold [1] | folding stability dG unfold [2] | folding stability dG unfold [3]
SAGGLIEAIKEAIDQAPPGDEEVTIPIRFPNGTFVIEIRREKDKYKIEIEMQNPNGQKQEITITIEVSAGGS [r16_642_TrROS] | 1.43 ± 0.091 kcal/mol | 1.65 ± 0.12 kcal/mol | 1.69 ± 0.089 kcal/mol
SAGGLKELLEALKEGNLEEALEALKKLGIEEVKIEIKPVVRVVITVEVPKEKVKVKVEVRVFLPEEELSAGG [r13_359_TrROS_Hall] | 1.94 ± 0.13 kcal/mol | 1.71 ± 0.33 kcal/mol | 1.24 ± 0.23 kcal/mol
SAGGLKIDEFERSPNQGRYYVTIKIYHPDNGKPWDIEVPFNPDNGRWSAEEIAKTIAKKFKLPPGFTISAGG [r13_362_TrROS] | 1.814 ± 0.014 kcal/mol | 2.05 ± 0.062 kcal/mol | 2.3 ± 0.08 kcal/mol
SAGGLKPGDWVIIMTIEFPFPFPDDDGKPQEWRIKITIWVPVEYDPPDGKLEIDNIFINIEIVPPDQISAGG [r13_312_TrROS] | 3.52 ± 0.22 kcal/mol | 4.44 ± 0.18 kcal/mol | 4.55 ± 0.1 kcal/mol
SAGGLLEELGLEIEEVEVEVEEVEVGQTVRIRVKVKGEDGEEFEIELEIRLPPPPVEVEEEVEEEEESAGGS [r8_216_TrROS_Hall] | 1.91 ± 0.2 kcal/mol | 1.82 ± 0.14 kcal/mol | 1.83 ± 0.09 kcal/mol
SAGGLLPLLKEIAEALGLPEIESLSFDPETGELTLRFRGPEPYLLRIPFRPVKDGGIPLDIEVYPTDLSAGG [r13_410_TrMRF] | 2.86 ± 0.06 kcal/mol | 3.02 ± 0.056 kcal/mol | 3.006 ± 0.03 kcal/mol
SAGGLPEEVEKLAEILAKLPPVVPVPVTFPDGVEVVYFPPTGFVAVRFYERDENGEWVLVGETFFPVSAGGS [r16_243_TrMRF] | 2.44 ± 0.042 kcal/mol | 2.98 ± 0.05 kcal/mol | 3.235 ± 0.016 kcal/mol
SAGGLSGEAKLVEAEFEPETGTVRVFAEAGDELLTFEFKGTPFLPPIPASISPESLEKDEPVIRVSGSAGGS [r16_809_TrMRF] | 0.597 ± 0.059 kcal/mol | 0.422 ± 0.079 kcal/mol | 0.143 ± 0.14 kcal/mol
SAGGLSLEELADELAQENGWEITEAEPIEFTPNTIRFEVTVRMPDGKRRTIEIEIEIPPPKPPDQPKSAGGS [r8_309_TrROS] | 1.15 ± 0.067 kcal/mol | 1.39 ± 0.13 kcal/mol | 1.63 ± 0.058 kcal/mol
SAGGLTPEQWREIAKNFANELAKEYQERGPNVKIDVEVDPEEGYFKIKVENNDENMPRTITIPWDDIRSAGG [r13_354_TrROS] | 0.701 ± 0.046 kcal/mol | 1.1 ± 0.079 kcal/mol | 1.35 ± 0.066 kcal/mol
SAGGLYKKDPDGQYVKPVPKVPPIPIEIKFPNGVEVKIEIYPYSNHITIEYTGPNPELANELIQEIIQSAGG [r13_701_TrROS] | 0.425 ± 0.091 kcal/mol | 0.702 ± 0.19 kcal/mol | 0.624 ± 0.2 kcal/mol
SAGGMANPEDFKVVESLEFRDPDNGKPFTIEIAKPPDNNVPIMIWHNGSMYMFVIDGDKIEVFPIKNSAGGS [r16_711_TrROS] | 1.5 ± 0.04 kcal/mol | 1.75 ± 0.091 kcal/mol | 1.88 ± 0.1 kcal/mol
SAGGMEIKEVKYDPEEGYLYIVVAAPPSVSPSEVVPAVVRAARELTGAEVEVEVDPETGYVVAKVPVSAGGS [r8_314_TrMRF] | 1.43 ± 0.026 kcal/mol | 1.77 ± 0.089 kcal/mol | 1.92 ± 0.043 kcal/mol
SAGGMEIKIENIEINPDKKTIQYNFEIYHDGQPFKMDISIEVDPKNGLYKITVTYPDFPGVKHTLYIPSAGG [r13_615_TrROS] | 3.38 ± 0.23 kcal/mol | 5.35 ± 0.54 kcal/mol | 5.27 ± 0.15 kcal/mol
SAGGMESSVTTTPDPNSDTTTTTTTVPLPDETTTTTTTTTTAPGTVTTTTTTYPPGGTPTTTTSTTASAGGS [r16_733_JUSTAS] | 2.38 ± 0.17 kcal/mol | 1.92 ± 0.12 kcal/mol | 1.61 ± 0.052 kcal/mol
SAGGMESTSIPLEFKFEGDEEKAKKKVEEEAKKIAEEKGIEIKIEVKFDPNKPTATVTILVKGKEVEESAGG [r13_845_JUSTAS] | -0.411 ± 0.058 kcal/mol | -0.285 ± 0.22 kcal/mol | -0.281 ± 0.25 kcal/mol
SAGGMEVEITIVVPPGASLEEIEELARKLAEELGLSVENIKVTVIVVEPEEEEEEEEEKKLKEEEEKSAGGS [r16_240_TrROS_Hall] | 1.93 ± 0.17 kcal/mol | 2.57 ± 0.55 kcal/mol | 3.04 ± 0.56 kcal/mol
SAGGMHLVIPFDSPEEALEAAKELKKEFEEKGYTVKVYYFPETGDIHVLVEMKTDGKTKYLNVTVPFPSAGG [r13_641_TrMRF] | 0.83 ± 0.034 kcal/mol | 1.73 ± 0.057 kcal/mol | 2.05 ± 0.036 kcal/mol

Sequence | folding stability dG unfold [1] | folding stability dG unfold [2] | folding stability dG unfold [3]
SAGGMIAPDEKVLVKVTLSEGTTSRELEFEFEVPPGATEEELKQRVIDEIPEEPRKNWKVEVEIKPVSAGGS [r16_321_JUSTAS] | 0.918 ± 0.056 kcal/mol | 0.596 ± 0.21 kcal/mol | 0.198 ± 0.24 kcal/mol
SAGGMIEKIKEAAKKLGLKVKIEEVKFDKKTKKVTIKITLENGKKIEITVEMSEEELLNAIKELIKKSAGGS [r16_153_TrROS_Hall] | 2.52 ± 0.11 kcal/mol | 3.34 ± 0.14 kcal/mol | 3.62 ± 0.091 kcal/mol
SAGGMIEVFVEGLTLEETLRRLAEEYPDVPEVVVFFPDGTAVFFRRDGDEVEVVEVVPVGPVAPDELSAGGS [r8_225_TrMRF] | 2.59 ± 0.068 kcal/mol | 2.93 ± 0.061 kcal/mol | 3.118 ± 0.017 kcal/mol
SAGGMIIIEGMSEEEIKNLIKEAIKKGEKVKKIVIRVNGKLYLITVDAKTKKITVEEIPLEELKKKKSAGGS [r16_481_TrROS_Hall] | 0.692 ± 0.095 kcal/mol | 1.4 ± 0.21 kcal/mol | 1.85 ± 0.067 kcal/mol
SAGGMIPEELIRKLFEDGKPVPLEQIVELIEKLTGRPVRLEEGEDKFRIVVLDPDTPELLDEIEIDFSAGGS [r8_105_TrMRF] | 1.43 ± 0.086 kcal/mol | 1.55 ± 0.091 kcal/mol | 1.57 ± 0.028 kcal/mol
SAGGMIQIERDKDGYLRITIWVPGDPKEAEEIAENIIELLQDLGFDEVDIDYEPFDGGVMIEITVKVSAGGS [r8_113_TrROS] | 2.9 ± 0.12 kcal/mol | 3.29 ± 0.077 kcal/mol | 3.49 ± 0.083 kcal/mol
SAGGMIRIERDGDRLTIQIPMPPGQPPTPEQVEEFARDILKKLGPDVRVKDVSHDPNGGFTIELKVPSAGGS [r8_103_TrROS] | 1.48 ± 0.028 kcal/mol | 1.81 ± 0.069 kcal/mol | 2.15 ± 0.051 kcal/mol
SAGGMIRITEGPNYYKITFWMPPNNPSLLEEIADFFGNPKVDTEPIPEDGMTRHEITLPLDDPEAIKSAGGS [r16_479_TrROS] | 0.765 ± 0.11 kcal/mol | 1.19 ± 0.27 kcal/mol | 1.37 ± 0.23 kcal/mol
SAGGMISEEDIEAAAKAIVEAAKNGDPERIEEEYARLEEALEEAEKEGDPERRGRLAKAVEAAKKLLGSAGG [r13_137_TrMRF] | 1.43 ± 0.02 kcal/mol | 1.64 ± 0.12 kcal/mol | 1.75 ± 0.043 kcal/mol
SAGGMISKKLNPPSKEEAEKIAEEIKKKNPNYKVTMTYDPKTGTYTITITPLPKPPPDPKNFKEIIKSAGGS [r16_674_JUSTAS] | 1.23 ± 0.12 kcal/mol | 1.48 ± 0.21 kcal/mol | 1.74 ± 0.15 kcal/mol
SAGGMITEKVEKIDDGEIIKLTANLSDPSPVVAWLKATGKNVKLVEIKPTTDPETGNTTVNATFLLPSAGGS [r16_699_JUSTAS] | 0.109 ± 0.25 kcal/mol | 0.0229 ± 0.22 kcal/mol | -0.234 ± 0.41 kcal/mol
SAGGMITLTLPIPAEFLEKHGLDEAKKIVLEKAKEELKKLGLSEKYPIKKIEITPEPESLTATIVILSAGGS [r16_368_JUSTAS] | 2 ± 0.036 kcal/mol | 2 ± 0.04 kcal/mol | 1.95 ± 0.026 kcal/mol
SAGGMITLTVTREDWDTVYAKLKAEKNVTVKVVKGNTWSTYPASEVKALREEIPADPNEPLTLEIVESAGGS [r16_377_JUSTAS] | 0.0201 ± 0.18 kcal/mol | 0.283 ± 0.23 kcal/mol | 0.382 ± 0.24 kcal/mol
SAGGMIVANVNPETDKVTLLITRPVVLYDEETGELREEEVTLVITASLEELEKLEEESGLPLLIIPSSAGGS [r8_337_TrMRF] | 1.63 ± 0.1 kcal/mol | 1.92 ± 0.15 kcal/mol | 2.16 ± 0.071 kcal/mol
SAGGMIVEEETKPTPPLPDGTLVTESKVTIYINGKKITTTVKTTTLPDGTKVVETTLKGKKLKIILESAGGS [r16_448_JUSTAS] | 2.26 ± 0.07 kcal/mol | 2.98 ± 0.075 kcal/mol | 3.193 ± 0.027 kcal/mol
SAGGMIVTTIPGSPAIKVEIPFPETPFSATITIPIAPDGTVTADLKPHPDMSEELIEKIKELAKELLKSAGG [r13_139_JUSTAS] | 1.03 ± 0.024 kcal/mol | 0.849 ± 0.092 kcal/mol | 0.829 ± 0.037 kcal/mol
SAGGMKEITLPNGVKITEVIEKDGYYYIKIYNKKTGKVYEIKVKKGEKIEIKFPKGSTVTKIEIVKKSAGGS [r16_123_TrROS_Hall] | 1.7 ± 0.04 kcal/mol | 2.8 ± 0.095 kcal/mol | 3.24 ± 0.066 kcal/mol
SAGGMKIEIELEDGYLRVKIYDKDGKLIEEIEIKIEKVEPPPEVEVELSPEELAKKLGVEIEIKEKESAGGS [r16_778_TrROS_Hall] | 1.62 ± 0.18 kcal/mol | 2.32 ± 0.44 kcal/mol | 2.38 ± 0.2 kcal/mol
